Read-outs that look alike come from different tables or passages of the source.
T1: BK virus VP1 protein, genotype I (BK virus, UniProt P03088 1-362)
T1 sequence: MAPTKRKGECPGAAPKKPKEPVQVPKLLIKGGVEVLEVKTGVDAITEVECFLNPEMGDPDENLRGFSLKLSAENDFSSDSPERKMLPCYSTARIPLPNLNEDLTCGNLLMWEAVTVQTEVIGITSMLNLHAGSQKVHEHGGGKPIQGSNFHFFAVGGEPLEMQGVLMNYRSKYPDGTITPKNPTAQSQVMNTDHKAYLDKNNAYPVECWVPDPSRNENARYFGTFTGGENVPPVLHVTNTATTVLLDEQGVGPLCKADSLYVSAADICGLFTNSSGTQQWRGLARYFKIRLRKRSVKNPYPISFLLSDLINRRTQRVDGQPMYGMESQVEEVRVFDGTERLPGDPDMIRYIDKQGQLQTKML

B1: 9H9 (antibody, V domains shown)
VH: EVQLVESGGGLVQPGGSLRLSCAASGFTFSSYEMNWVRQAPGKGLEWVSYISSGGSSIKYADSVRGRFTFSRDNAENSVHLQMNSLRGEDTAVYYCARVGGSYYYSYAMDVWGQGTAVTVSS
VL: DIQLTQSPSFLSASVGDRVTITCWASQDISSYLAWYQQKPGKAPKLLIYAASTLQSGVPSRFSGSGSGTEFTLTISSLQPEDFATYYCQQPNNYPFSFGPGTKVDVK
B2: 6E1 (antibody, V domains shown)
VH: EVQLLESGGGLVQPGGSLRLSCAASGFTFSSFAMSWVRQAPGKGLEWVSGISGSGGSTYYADSVKGRFTISRDNSKNTLYLQMNSLRAEDTAIYYCAKDKRNWNYGIDSFDFWGQGTMVTVSS
VL: DIQMTQSPSSLSASVGGRVTITCRTSQSISGYLNWYQQKAGKAPKLLIYATSNLQSGVPSRFTGSGSGTDFTLTISSLQPEDFAAYYCHQSHSPPFTFGPGTKVAFK
B3: 2B9 (antibody, V domains shown)
VH: EVQLLESGGGLAQPGKSLRLSCAASGFTFSGFAMSWVRQAPGKGLEWVSGISGSGDITYYADSVKGRFTISRDNSKSTLYLQMNSLGAEDTAVYYCAKDPYNWNHGVYGMDVWGQGTTVTVSS
VL: DIQMTQSPSSLSASVGDRVTITCRASQSISSYLNWYQQKPGKAPKFLIYGASSLQSGVPSRFSGSGSGTDFTLTISSLQPEDFAAYYCQQSFNAPLTFGGGTKVEIK
B4: 2A10 (antibody, V domains shown)
VH: EVQLVQSGAEVKKPGESLKISCKGSGYSFTYYWIGWVRQMPGKGLEWMGIIYPGDSDTRYSPSFQGQVTISADKSISTAYLQWSSLKASDTAMYYCTTHARNWNNVAYWGQGTLVTVSS
VL: DIQMTQSPSSLSASVGDRLTITCRASQNINTFLNWYQQNPGKAPKVLIYAASSLESGVPSRFSGSGSGTDFTLTISSLQPEDFATYYCQQSSSTPWTFGQGTKVEIK
B5: 2F11 (antibody, V domains shown)
VH: EVQLVQSGAEVKKPGESLKISCKGSGYSFTNYWIGWVRQMPGKGLEWMGIIYPGDSDTRYSPSFQGQVTLSADKSISTAYLQWNSLKASDTAMYYCATHARSWNYVAYWGQGTLVTVAS
VL: DIQMTQSPSSLSASVGDRVTITCRASQSVNNFLNWYQQKPGTAPKLLIYAASSLQGGVPSRFSGSGSGTDFTLTISSLQPEDFATYYCQQSNTTPWTFGQGTKVEIK

Assays:
Assay in all cases: cell-based or functional assay
[1] = molecular target: BK virus VP1 protein, genotype III (BK virus)
[2] = molecular target: BK virus VP1 protein, genotype IV (BK virus)
[3] = molecular target: T1, BK virus VP1 protein, genotype I
[4] = molecular target: BK virus VP1 protein, genotype II (BK virus)
[5] = molecular target: BK virus VP1 protein, genotype III (BK virus); remark: listed apart in the source
[6] = molecular target: BK virus VP1 protein, genotype IV (BK virus); remark: listed apart in the source
[7] = molecular target: T1, BK virus VP1 protein, genotype I; remark: listed apart in the source
[8] = molecular target: BK virus VP1 protein, genotype II (BK virus); remark: listed apart in the source
[9] = molecular target: BK virus VP1 protein, genotype III (BK virus); remark: listed apart in the source
[10] = molecular target: BK virus VP1 protein, genotype IV (BK virus); remark: listed apart in the source
[11] = molecular target: T1, BK virus VP1 protein, genotype I; remark: listed apart in the source
[12] = molecular target: BK virus VP1 protein, genotype II (BK virus); remark: listed apart in the source

Binder	EC50, pseudovirus neutralization [1] [nM]	EC50, pseudovirus neutralization [2] [nM]	EC50, pseudovirus neutralization [3] [nM]	EC50, pseudovirus neutralization [4] [nM]	EC50, pseudovirus neutralization (mAb mixed with irrelevant isotype matched mAb M2) [5] [nM]	EC50, pseudovirus neutralization (mAb mixed with irrelevant isotype matched mAb M2) [6] [nM]	EC50, pseudovirus neutralization (mAb mixed with irrelevant isotype matched mAb M2) [7] [nM]	EC50, pseudovirus neutralization (mAb mixed with irrelevant isotype matched mAb M2) [8] [nM]	EC50, pseudovirus neutralization (mAb mixed with irrelevant isotype matched mAb M2) [9] [nM]	EC50, pseudovirus neutralization (mAb mixed with irrelevant isotype matched mAb M2) [10] [nM]	EC50, pseudovirus neutralization (mAb mixed with irrelevant isotype matched mAb M2) [11] [nM]	EC50, pseudovirus neutralization (mAb mixed with irrelevant isotype matched mAb M2) [12] [nM]	EC50, pseudovirus neutralization [9] [nM]	EC50, pseudovirus neutralization [10] [nM]	EC50, pseudovirus neutralization [12] [nM]
B1	1.14	> 6.67	0.0087	0.0083	–	–	–	–	–	–	–	–	–	–	–
B2	> 6.67	0.0095	0.00295	> 6.67	> 6.67	0.0496	0.00067	> 6.67	> 2	0.021	0.00078	> 2	–	–	–
B3	0.0808	0.148	–	0.154	0.0054	0.0108	–	0.044	–	–	–	–	0.0068	0.0114	0.0613
B4	0.0024	0.0015	> 6.67	0.0094	0.0064	0.0059	> 6.67	0.0557	0.000654	0.00072	> 2	0.0112	–	–	–
B5	0.0105	0.0061	> 6.67	0.0838	–	–	–	–	0.0061	0.00185	> 2	0.148	–	–	–

— patent US20250304658A1 (ICAHN SCHOOL OF MEDICINE AT MOUNT SINAI, published 2025)
